Patent US20200024330A1

B1: PGT-130 (antibody, V domains shown)
VH: QVQLQESGPGLVKPAETLSLTCSVSGESINTGHYYWGWVRQVPGKGLEWIGHIHYTTAVLHNPSLKSRLTIKIYTLRNQITLRLSNVTAADTAVYHCVRSGGDILYYYEWQKPHWFSPWGPGIHVTVSS
VL: QSALTQPPSASGSLGQSVTISCNGTSSDIGGWNFVSWYQQFPGRAPRLIIFEVNKRPSGVPGRFSGSKSGNSASLTVSGLQSDDEGQYFCSSLFGRWDVVFGGGTKLTVL
B2: PGT-127 (antibody, V domains shown)
VH: QPQLQESGPGLVEASETLSLTCTVSGDSTGRCNYFWGWVRQPPGKGLEWIGSLSHCRSYYNTDWTYHNPSLKSRLTISLDTPKNQVFLRLTSVTAADTATYYCARFGGEVLVYRDWPKPAWVDLWGRGTLVVTVS
VL: QSALTQPPSASGSPGQSITISCTGTSNNFVSWYQQYPGKAPKLVIYEVNKRPSGVPDRFSGSKSGSTASLTVSGLQADDEGVYYCSSLVGNWDVIFGGGTKLTVL
B3: PGT-131 (antibody, V domains shown)
VH: QVQLQESGPGLVKPSETLSLTCTVSGDSINTGHHYWGWVRQVPGKGPEWIAHIHYNTAVLHNPALKSRVTISIFTLKNLITLSLSNVTAADTAVYFCVRSGGDILYYIEWQKPHWFYPWGPGILVTVSS
VL: QSALTQPPSASGSLGQSLTISCSGTGSDIGSWNFVSWYQQFPGRAPNLIIFEVNRRRSGVPDRFSGSKSGNTASLTVSGLRSEDEAEYFCSSLSGRWDIVFGGGTKVTVL

biological target: HIV-1 92RW020 envelope glycoprotein (Env) (HIV-1); assay: cell-based or functional assay

| Binder | IC50 neutralization |
| --- | --- |
| B1 | 0.014 µg/mL |

biological target: HIV-1 Env of isolate MGRM-A-007 (HIV-1); assay: cell-based or functional assay

| Binder | IC50 (µg/mL), pseudovirus neutralization |
| --- | --- |
| B2 | > 50 µg/mL |

biological target: HIV-1 Env of isolate 92WR024 (HIV-1); assay: cell-based or functional assay

| Binder | IC50 (µg/mL), pseudovirus neutralization |
| --- | --- |
| B2 | > 50 µg/mL |

biological target: HIV-1 Env of isolate MGRM-A-003 (HIV-1); assay: cell-based or functional assay

| Binder | IC50 (µg/mL), pseudovirus neutralization |
| --- | --- |
| B2 | > 50 µg/mL |

biological target: HIV-1 93UG077 envelope glycoprotein (Env) (HIV-1); assay: cell-based or functional assay

| Binder | IC50 neutralization |
| --- | --- |
| B1 | > 10 µg/mL |

biological target: HIV-1 Env of isolate 92UG031 (HIV-1); assay: cell-based or functional assay

| Binder | IC50 (µg/mL), pseudovirus neutralization |
| --- | --- |
| B2 | > 50 µg/mL |

biological target: HIV-1 Env of isolate MGRM-A-014 (HIV-1); assay: cell-based or functional assay

| Binder | IC50 (µg/mL), pseudovirus neutralization |
| --- | --- |
| B2 | 0.04 µg/mL |

biological target: HIV-1 Env of isolate MGRM-A-012 (HIV-1); assay: cell-based or functional assay

| Binder | IC50 (µg/mL), pseudovirus neutralization |
| --- | --- |
| B2 | 0.105 µg/mL |

biological target: HIV-1 MGRM-C-027 envelope glycoprotein (Env) (HIV-1); assay: cell-based or functional assay

| Binder | IC50 neutralization |
| --- | --- |
| B1 | 5.2 ng/mL |

biological target: HIV-1 Env of isolate MGRM-A-005 (HIV-1); assay: cell-based or functional assay

| Binder | IC50 (µg/mL), pseudovirus neutralization |
| --- | --- |
| B2 | > 50 µg/mL |

biological target: HIV-1 Env of isolate MGRM-A-011 (HIV-1); assay: cell-based or functional assay

| Binder | IC50 (µg/mL), pseudovirus neutralization |
| --- | --- |
| B2 | > 50 µg/mL |

biological target: HIV-1 Env of isolate MGRM-AE-001 (HIV-1); assay: cell-based or functional assay

| Binder | IC50 (µg/mL), pseudovirus neutralization |
| --- | --- |
| B2 | > 50 µg/mL |

biological target: HIV-1 Env of isolate MGRM-A-010 (HIV-1); assay: cell-based or functional assay

| Binder | IC50 (µg/mL), pseudovirus neutralization |
| --- | --- |
| B2 | 0.017 µg/mL |

biological target: HIV-1 MGRM-C-026 envelope glycoprotein (Env) (HIV-1); assay: cell-based or functional assay

| Binder | IC50 neutralization |
| --- | --- |
| B1 | 0.0173 µg/mL |

biological target: HIV-1 Env of isolate MGRM-A-001 (HIV-1); assay: cell-based or functional assay

| Binder | IC50 (µg/mL), pseudovirus neutralization |
| --- | --- |
| B2 | > 50 µg/mL |

biological target: HIV-1 Env of isolate VLGCA1 (HIV-1); assay: cell-based or functional assay

| Binder | IC50 (µg/mL), pseudovirus neutralization |
| --- | --- |
| B2 | > 50 µg/mL |

biological target: HIV-1 Env of isolate 93WR029 (HIV-1); assay: cell-based or functional assay

| Binder | IC50 (µg/mL), pseudovirus neutralization |
| --- | --- |
| B2 | > 50 µg/mL |

biological target: HIV-1 Env of isolate 92WR009 (HIV-1); assay: cell-based or functional assay

| Binder | IC50 (µg/mL), pseudovirus neutralization |
| --- | --- |
| B2 | > 50 µg/mL |

biological target: HIV-1 93IN905 envelope glycoprotein (Env) (HIV-1); assay: cell-based or functional assay

| Binder | IC50 neutralization |
| --- | --- |
| B1 | 0.0182 µg/mL |

biological target: HIV-1 Env of isolate 92UG037 (HIV-1); assay: cell-based or functional assay

| Binder | IC50 (µg/mL), pseudovirus neutralization |
| --- | --- |
| B2 | 0.014 µg/mL |

biological target: HIV-1 JR-CSF Env G324A (HIV-1 isolate JR-CSF) (UniProt P20871); assay: cell-based or functional assay

| Binder | Fold IC50 increase relative to wild-type |
| --- | --- |
| B1 | > 50 fold |

biological target: HIV-1 Env of isolate 92WR026 (HIV-1); assay: cell-based or functional assay

| Binder | IC50 (µg/mL), pseudovirus neutralization |
| --- | --- |
| B2 | 0.024 µg/mL |

biological target: HIV-1 94UG103 envelope glycoprotein (Env) (HIV-1); assay: cell-based or functional assay

| Binder | IC50 neutralization |
| --- | --- |
| B1 | 0.635 µg/mL |

biological target: HIV-1 Env of isolate MGRM-A-002 (HIV-1); assay: cell-based or functional assay

| Binder | IC50 (µg/mL), pseudovirus neutralization |
| --- | --- |
| B2 | 9.42 µg/mL |

biological target: HIV-1 APV6 envelope glycoprotein (Env) (HIV-1); assay: cell-based or functional assay

| Binder | IC50 neutralization |
| --- | --- |
| B1 | > 10 µg/mL |

biological target: HIV-1 Env of isolate 94KE105 (HIV-1); assay: cell-based or functional assay

| Binder | IC50 (µg/mL), pseudovirus neutralization |
| --- | --- |
| B2 | 0.023 µg/mL |

biological target: HIV-1 Env of isolate 94UG103 (HIV-1); assay: cell-based or functional assay

| Binder | IC50 (µg/mL), pseudovirus neutralization |
| --- | --- |
| B2 | 0.017 µg/mL |

biological target: HIV-1 Env of isolate MGRM-A-009 (HIV-1); assay: cell-based or functional assay

| Binder | IC50 (µg/mL), pseudovirus neutralization |
| --- | --- |
| B2 | 0.013 µg/mL |

biological target: HIV-1 APV13 envelope glycoprotein (Env) (HIV-1); assay: cell-based or functional assay

| Binder | IC50 neutralization |
| --- | --- |
| B1 | 0.0345 µg/mL |

biological target: HIV-1 MGRM-C-028 envelope glycoprotein (Env) (HIV-1); assay: cell-based or functional assay

| Binder | IC50 neutralization |
| --- | --- |
| B1 | > 10 µg/mL |

biological target: HIV-1 Env of isolate 92WR021 (HIV-1); assay: cell-based or functional assay

| Binder | IC50 (µg/mL), pseudovirus neutralization |
| --- | --- |
| B2 | 0.011 µg/mL |

biological target: HIV-1 APV17 envelope glycoprotein (Env) (HIV-1); assay: cell-based or functional assay

| Binder | IC50 neutralization |
| --- | --- |
| B1 | > 10 µg/mL |

biological target: HIV-1 Env of isolate MGRM-AE-003 (HIV-1); assay: cell-based or functional assay

| Binder | IC50 (µg/mL), pseudovirus neutralization |
| --- | --- |
| B2 | > 50 µg/mL |

biological target: HIV-1 Env of isolate MGRM-A-013 (HIV-1); assay: cell-based or functional assay

| Binder | IC50 (µg/mL), pseudovirus neutralization |
| --- | --- |
| B2 | 0.029 µg/mL |

biological target: Env of the clade AE HIV-1 pseudoviruses of the cross-clade 162-pseudovirus panel (n = 10); assay: cell-based or functional assay

| Binder | Median IC50 against viruses neutralized with an IC50 <50 µg/ml |
| --- | --- |
| B1 | 0.17 µg/mL |
| B3 | 0.08 µg/mL |

biological target: HIV-1 92BR020 envelope glycoprotein (Env) (HIV-1); assay: cell-based or functional assay

| Binder | IC50 neutralization |
| --- | --- |
| B1 | 1.12 µg/mL |

biological target: HIV-1 Env of isolate MGRM-AE-002 (HIV-1); assay: cell-based or functional assay

| Binder | IC50 (µg/mL), pseudovirus neutralization |
| --- | --- |
| B2 | > 50 µg/mL |
